Residue numbers refer to the chain shown, from its start.

From US20240263193A1 come the findings set out here.

Holding throughout (test): cell-based or functional assay
The target in assay [1] is T1, BAD (N-terminal BAD peptide).
T1 sequence (peptide): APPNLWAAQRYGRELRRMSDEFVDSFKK

In assay [2] the target is T2, BAD(G).
T2 sequence (peptide): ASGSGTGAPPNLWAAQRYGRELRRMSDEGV

The target in assay [3] is T3, BAD(V).
T3 sequence (peptide): T2 sequence (peptide) with G29V

In assay [4] the target is T4, Bad(F).
T4 sequence (peptide): T2 sequence (peptide) with G29F

Assay [5] concerns the target T5, Bad(L).
T5 sequence (peptide): T2 sequence (peptide) with G29L

The target of assay [6] is T6, MS1(I17A).
T6 sequence (peptide): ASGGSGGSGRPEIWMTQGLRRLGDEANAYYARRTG

The target in assay [7] is T7, MS1(I17G).
T7 sequence (peptide): T6 sequence (peptide) with A26G

Assay [8] deals with Bcl-TEV IRES iADAR.

Sequence of Bcl-xL (Q07817 4-198 limits assumed): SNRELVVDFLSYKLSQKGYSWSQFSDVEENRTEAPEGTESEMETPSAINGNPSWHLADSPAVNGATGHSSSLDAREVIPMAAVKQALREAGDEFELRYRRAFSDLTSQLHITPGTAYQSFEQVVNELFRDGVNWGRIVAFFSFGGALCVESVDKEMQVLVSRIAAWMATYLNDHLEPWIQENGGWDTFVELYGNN
Sequence of Mcl-1 (Q07820 172-327 limits assumed): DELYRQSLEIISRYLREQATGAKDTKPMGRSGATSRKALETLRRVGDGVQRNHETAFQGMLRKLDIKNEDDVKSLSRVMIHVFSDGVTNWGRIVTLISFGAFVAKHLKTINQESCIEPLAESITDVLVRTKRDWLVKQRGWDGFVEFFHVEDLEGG

As for Bcl-xL (from UniProt Q07817 4-198), in assay [1], the fold change of mNeonGreen/mCherry with A-1331852, nBAD-ADAR-cBcl-xL with unmutated DD, HEK cells, microscopy (intramolecular pair) came out at 5.9 fold. Further, the Fold Change, 1 µM against 0 µM A-1331852, HEK cells, flow cytometry (intramolecular pair) in assay [2] worked out at 9.65 fold; in assay [3] it was 14.4 fold; in assay [4], 37 fold; in assay [5] it was 23.2 fold. Besides, the median ratio of mNeonGreen to mCherry, 0 µM A-1331852, HEK cells, flow cytometry (intramolecular pair) was determined as 0.1 in assay [2], 0.0708 in assay [3], 0.026 in assay [4] and 0.0389 in assay [5]. The median ratio of mNeonGreen to mCherry, 1 µM A-1331852, HEK cells, flow cytometry (intramolecular pair) in assay [2] came to 0.968; in assay [3] it was 1.02; in assay [4], 0.962; in assay [5], 0.903.
In the case of Mcl-1 (from UniProt Q07820 172-327), the fold change of mNeonGreen/mCherry with S63845, MS1(A)-Mcl1 ADAR with unmutated DD, HEK cells, microscopy (intramolecular pair) in assay [6] was determined as 12 fold. Moreover, in assay [7], the fold change of mNeonGreen/mCherry with S63845, MS1(I17G)-Mcl1 ADAR with unmutated DD, HEK cells, microscopy (intramolecular pair) was determined as 2.8 fold.
As to “TEV Protease (from UniProt P04517 2038-2271) (enzyme)”, in assay [8], the fold change of the mean RFU (mNeonGreen-to-mCherry), TEV protease against filler DNA, single-transcript IRES-iADAR, HEK cells, microscopy worked out at 17 fold; the fold change of the mean RFU (mNeonGreen-to-mCherry), dual addition of A-1331852 and TEV protease, single-transcript IRES-iADAR, HEK cells, microscopy came to 32 fold.
